In paper PMC4787775, “Molecular basis for the substrate specificity and catalytic mechanism of thymine-7-hydroxylase in fungi” (Nucleic Acids Research, 2015):
Changes are numbered by the printed parent chain. Names may count otherwise.

B1: NcT7H (thymine-7-hydroxylase) (Neurospora crassa OR74A; R286A) (protein)
chain: MEKAAVNEDGLVIPLIDFSKFLEGDETLKLETAKAILHGFQTAGFIYLKNIPIQPDFREHVFNTSAKFFKLPKEKKLEVGWTTPEANRGYSAPGREKVTQLTDPAEIEKIRSAAPDIKESYEIGREDEPGHPNPWPAEQDDLVGFKSTMNNFFDQCKALHIEVMRAIAVGMGIDANYFDSFVDVGDNILRLLHYPAVKSEVFKINPGQVRAGEHTDYGSITLLFQDSRGGLQVKSPNGQFIDATPIENTVVVNAGDLLARWSNDTIKSTVHRVVEPPKQEDVHPPAYSIAYFCNPNHKSYIEAIPGTYAAESERKYEGINSGKYLVQRLAATY
notes: full length (residues 1-333), C-terminal His6-tag, pET-28a, expressed in E. coli BL21(DE3); Ni-NTA and gel filtration, tag removal not mentioned
B2: NcT7H (thymine-7-hydroxylase) (Neurospora crassa OR74A; N87A) (protein)
chain: B1 chain with N87A, A286R
notes: as for B1
B3: NcT7H (thymine-7-hydroxylase) (Neurospora crassa OR74A) (protein)
chain: B1 chain with A286R
notes: as for B1
B4: NcT7H (thymine-7-hydroxylase) (Neurospora crassa OR74A; Y217F) (protein)
chain: B1 chain with Y217F, A286R
notes: as for B1
B5: NcT7H (thymine-7-hydroxylase) (Neurospora crassa OR74A; R190K) (protein)
chain: B1 chain with R190K, A286R
notes: as for B1
B6: NcT7H (thymine-7-hydroxylase) (Neurospora crassa OR74A; Y217A) (protein)
chain: B1 chain with Y217A, A286R
notes: as for B1

Substrate: O=c1[nH]cc(CO)c(=O)[nH]1
Test: purified protein
Conditions: 1 mM α-KG, 0.2 mM (NH4)2Fe(SO4)2, 0.2 mM ascorbic acid, 100 mM Hepes pH 7.5, 25 °C

Molecule | Km [µM] | kcat [s⁻¹] | kcat/Km [M⁻¹ s⁻¹]
B1 | 950 ± 114 | 0.141 | 150
B2 | 1065 ± 156 | 0.0962 | 83.3
B3 | 178 ± 16.4 | 0.325 | 1830
B4 | 247 ± 35.2 | 0.553 | 2230
B5 | 1016 ± 200 | 0.0353 | 33.3

Substrate: O=Cc1c[nH]c(=O)[nH]c1=O
Test: purified protein
Assay type: biochemical, Neurospora crassa
Conditions: 1 mM α-KG, 0.2 mM (NH4)2Fe(SO4)2, 0.2 mM ascorbic acid, 100 mM Hepes pH 7.5, 25 °C

Molecule | Km [µM] | kcat [s⁻¹] | kcat/Km [M⁻¹ s⁻¹]
B3 | 253 ± 32.2 | 0.765 ± 0.0357 | 3020
B4 | 718 ± 213 | 0.237 ± 0.0352 | 333

Substrate: Cc1c[nH]c(=O)[nH]c1=O
Test: purified protein
Assay type: biochemical, Neurospora crassa
Conditions: 1 mM α-KG, 0.2 mM (NH4)2Fe(SO4)2, 0.2 mM ascorbic acid, 100 mM Hepes pH 7.5, 25 °C

Molecule | Km [µM] | kcat [s⁻¹] | kcat/Km [M⁻¹ s⁻¹]
B1 | 649 ± 74.1 | 0.405 ± 0.0215 | 617
B2 | 638 ± 128 | 0.23 ± 0.022 | 367
B3 | 141 ± 13.4 | 0.417 ± 0.0123 | 2950
B6 | 1500 ± 332 | 0.257 ± 0.0355 | 167
B4 | 128 ± 18.5 | 0.542 ± 0.0228 | 4230
B5 | 542 ± 64.7 | 0.055 ± 0.003 | 100

Target: T1, NcT7H (thymine-7-hydroxylase) (Neurospora crassa, UniProt Q7RYZ9)
T1 construct: gene NCU06416; full length (residues 1-333), C-terminal His6-tag, pET-28a, expressed in E. coli BL21(DE3); Ni-NTA and gel filtration, tag removal not mentioned
Test: isothermal titration calorimetry
Assay type: binding
Conditions: not given
Excerpt: isothermal titration calorimetry on NcT7H (thymine-7-hydroxylase)

T1 sequence (Q7RYZ9 entry or part of it): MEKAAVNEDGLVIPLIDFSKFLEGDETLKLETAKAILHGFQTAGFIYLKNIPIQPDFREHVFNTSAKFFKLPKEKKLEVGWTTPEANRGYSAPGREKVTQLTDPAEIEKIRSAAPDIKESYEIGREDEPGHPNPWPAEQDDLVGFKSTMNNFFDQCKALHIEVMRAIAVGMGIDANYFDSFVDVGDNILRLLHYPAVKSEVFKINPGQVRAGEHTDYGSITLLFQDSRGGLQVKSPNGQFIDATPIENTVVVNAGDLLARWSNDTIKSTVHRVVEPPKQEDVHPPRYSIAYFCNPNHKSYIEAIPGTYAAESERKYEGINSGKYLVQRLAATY

Molecule | Kd [µM]
O=Cc1c[nH]c(=O)[nH]c1=O [5fU] | 108 ± 13
O=C(O)CCC(=O)C(=O)O [α-KG] | 34.4 ± 6.63
O=c1[nH]cc(CO)c(=O)[nH]1 [5hmU] | 30.5 ± 5.59
Cc1c[nH]c(=O)[nH]c1=O [T] | 32 ± 5.24
O=C(O)CNC(=O)C(=O)O [NOG] | 5.35 ± 1.26
